Assay results from the supplement of paper PMC10567573.

B1: ZNF511 (parent)
chain: EPLPVERDPAAGAAPFRFVARPVR
B2: KRT71 (parent)
chain: FGSRSLYSLGGVRSLNVASGSGKS

Variants of: B1
Assay: protein stability index of a GFP-peptide fusion (GPS, HEK-293T) (PSI 1-6); higher = more stable
Conditions: c terminus: a fixed tail appended
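Note: lentivirally expressed fusions sorted by FACS into six bins by GFP to DsRed ratio, PSI derived from sequencing read proportions per bin multiplied by bin number.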

Protein stability index of substitutions, site by site:
R24: T 1.97, H 2.02, I 2.33, C 2.22, D 2.17, M 2.37, G 1.89, L 1.62, E 2.15, Q 1.77, V 1.7, Y 1.78, W 1.64, A 2.2, P 2.75, F 2.04, K 2.04, N 2.18, S 1.81
A20: T 2.8, S 2.05, K 1.97, R 1.67, C 1.61, Y 4.17, H 2.81, Q 2.4, N 2.61, G 2.04, I 3.21, W 2.56, D 2.46, M 2.49, F 3.42, V 2.46, P 2.2, L 3.35, E 3.03
P22: M 2.48, I 3.15, V 2.6, A 2.64, L 2.33, E 2.62, F 3.22, K 2.22, Y 2.32, D 2.77, R 2.8, G 1.85, H 1.93, T 1.92, S 2.51, C 2.17, W 2.66, N 2.31, Q 2.02
F18: S 5.18, A 4.83, Y 4.32, Q 4.79, D 4.97, N 4.99, V 4.6, M 4.6, K 4.87, C 4.59, P 5.01, W 4.43, L 4.49, R 4.91, I 4.71, T 4.86, E 5.37, H 4.71, G 5.14
P15: Q 3.78, C 3.77, E 3.04, W 2.32, H 4.05, D 4.21, K 4.09, M 3.73, S 4.09, V 3.12, L 3.68, G 3.84, F 3.23, A 3.76, I 3.22, R 3.78, T 3.94, N 3.64
F16: K 4.67, M 3.69, S 4.88, D 5.52, T 4.52, H 4.75, N 4.86, W 2.46, L 4.06, P 5.26, Y 3.82, A 4.67, R 5.16, Q 5.34, V 4.62, I 4.73, C 4.08, E 5.25, G 5.43
A14: G 2.55, W 2.47, I 1.31, N 2.69, Y 1.96, T 2.29, R 2.68, S 3.27, L 2.44, M 2.42, P 2.52, K 3.16, H 2.53, Q 2.91, E 4.11, V 1.51
V23: C 3.19, Y 2.07, D 2.4, M 2.4, I 3, R 2.8, W 2.28, G 2.25, T 2.17, Q 2.95, K 2.01, H 2.69, S 2.41, P 2.83, F 2.48, L 2.73, N 2.13, A 2.58, E 2.4
R21: S 2.14, T 2.57, I 2.58, E 2.35, A 2.46, V 1.8, P 3.54, Y 1.76, L 2.07, M 1.95, W 1.41, N 1.59, G 2.03, C 1.7, F 2.51, Q 2.96, D 2.27, K 2.71, H 2.18
R17: E 4.94, Q 4.65, V 4.21, L 3.64, D 4.13, A 2.96, P 4.88, Y 2.98, I 3.6, C 3.88, G 4.86, N 3.45, W 3.4, T 4.19, H 4.17, K 4.42, S 3.87, F 2.56, M 3.88
V19: M 4.1, N 4.36, A 4.47, T 3.97, K 4.83, S 4.62, F 3.88, Y 4.31, L 3.97, E 4.57, I 2.89, G 5.14, Q 2.99, R 4.22, C 3.22, P 5.1, H 1.62, W 3.65, D 4.67

Variants of: B2
Assay: as above
Conditions: c terminus: a fixed tail appended

Protein stability index, by site and new letter:
S5: A 2.35, G 1.6, R 2.77, V 1.9, F 1.95, K 2.65, N 1.99, C 1.5, E 2.77, T 1.64, P 2.91, H 2.24, W 2.33, L 2.15, Q 2.16, Y 1.36, I 2.19, M 1.62, D 2.31
G2: H 1.32, W 1.8, I 1.78, F 2.33, L 2.45, V 3.98, R 3.5, N 2.58, M 1.99, K 3.75, Y 2.08, C 3.47, D 3.02, P 2.07, E 3.3, A 2.02, T 1.32, S 1.99, Q 3.09
L6: M 1.93, W 2.94, S 2.13, T 3.13, E 3.14, C 2.04, Y 1.48, D 3.7, A 1.67, R 2.65, H 2.33, I 2.29, V 1.62, Q 2.62, G 1.77, F 3.13, P 1.74, K 2.91, N 2.76
S3: W 1.59, C 1.56, M 2.21, K 1.78, V 2.23, Y 2.7, R 1.97, I 2.37, Q 2.09, L 2.47, E 2.22, H 2.06, A 2.19, F 2.22, P 2.71, G 1.84, T 1.95, N 1.26, D 1.43
R4: W 1.62, E 2.44, Q 2.5, F 1.58, G 2.56, Y 2.77, C 2.35, D 2.44, H 2.15, L 1.75, T 2, M 1.88, N 2.12, A 2.71, P 1.35, K 2.14, S 2.31, V 1.52, I 1.7
Y7: K 3.02, G 2.81, I 2.32, L 1.6, P 3.75, Q 3.91, A 3.46, E 4.17, D 3.53, H 2.98, C 2.48, F 3.01, N 3.26, M 2.54, R 3.57
F1: E 3.83, H 3.98, S 4.56, R 3.55, G 3.44, W 2.16, A 4.02, M 3.75, I 3.33, Y 1.64, K 4.06, P 3.92, T 3.59, Q 4.4, N 3.85, V 3.81, D 4.03, L 3.43, C 2.87
